Experimental data as given in patent publication US20230295332A1 (INTERIUS BIOTHERAPEUTICS, published 2023).

Experiments:
Test in all cases: cell-based or functional assay
human CD8 = human CD8 (human, UniProt P01732 22-235; P10966 22-210)
non-human primate CD8 = non-human primate CD8 (non-human primate)
human CD7 = molecular target: T1, human CD7 (human, UniProt P09564 26-240)
T1 sequence: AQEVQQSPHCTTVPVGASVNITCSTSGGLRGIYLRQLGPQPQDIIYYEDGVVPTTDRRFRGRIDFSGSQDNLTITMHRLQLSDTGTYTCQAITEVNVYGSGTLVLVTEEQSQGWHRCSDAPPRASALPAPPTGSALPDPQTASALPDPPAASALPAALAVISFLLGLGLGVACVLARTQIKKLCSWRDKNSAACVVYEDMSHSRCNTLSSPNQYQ

non-human primate CD7 = molecular target: T2, non-human primate CD7 (non-human primate)
T2 chain: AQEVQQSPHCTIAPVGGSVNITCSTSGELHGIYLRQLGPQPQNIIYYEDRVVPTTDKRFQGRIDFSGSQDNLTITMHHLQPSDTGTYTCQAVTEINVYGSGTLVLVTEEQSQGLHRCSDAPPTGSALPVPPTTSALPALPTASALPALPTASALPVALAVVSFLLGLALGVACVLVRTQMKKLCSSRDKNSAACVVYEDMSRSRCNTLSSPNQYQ

Chain of human CD8 (P01732 22-235 Y112C limits assumed, chain 1 of 2): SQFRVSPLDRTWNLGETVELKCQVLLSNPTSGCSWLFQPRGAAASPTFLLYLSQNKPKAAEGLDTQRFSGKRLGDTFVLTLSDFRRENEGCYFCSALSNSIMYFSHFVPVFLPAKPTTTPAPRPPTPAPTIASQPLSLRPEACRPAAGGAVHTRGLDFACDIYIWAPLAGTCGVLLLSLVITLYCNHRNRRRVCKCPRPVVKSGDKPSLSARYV
Chain of human CD8 (P10966 other isoform, or with tags, fused parts or gaps limits assumed, chain 2 of 2): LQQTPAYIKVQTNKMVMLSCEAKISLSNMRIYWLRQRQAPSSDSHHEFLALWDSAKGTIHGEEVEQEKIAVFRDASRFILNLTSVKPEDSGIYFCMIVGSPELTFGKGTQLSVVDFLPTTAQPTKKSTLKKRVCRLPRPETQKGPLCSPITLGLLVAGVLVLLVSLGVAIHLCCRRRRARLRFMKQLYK

B1: CD8 binder of SEQ ID NO: 70 (printed in Table 1 as 'CD7 Binder (SEQ ID NO. 70)') (scFv)
scFv: EVQLQQSGPELVKPGASVKISCKASRYTFTDYNLHWVKLSHEKSLEWIGFIYPYNGGTGYNQKFKNKAKLTVDYSSSTAYMELRSLTSVDAAVYYCARDHRYNEGVSFDYWGQGTTLTVSSGGGGSGGGGSGGGGSGGGGSNIVLTQSPASLAVSLGQRATISCRASESVDGFGNSFMNWYQQKPGQSPKLLIYLASNLESGVPARFSGSGSRTDFTLTIDPVEADDAATYYCQQNNEDPYTFGGGTKLEIKR
Human CD8
  Human PBMC Transduction (% positive): 3.17 % positive
non-human primate CD8
  NHP PBMC Transduction (% positive): 0.76 % positive

B2: CD7 Binder (SEQ ID NO. 52) (scFv)
scFv: QVQLQQPGAELVKPGASVKLSCKASGYPFTSYWIHWVKQRPGRGLEWLGRIDPNSGDTKYNEKFKNKATLTVDKSSTTAYMQLSSLTSEDSAVYYCARSPYYSNDNSMDYWGQGTSVTVSSGGGGSGGGGSGGGGSGGGGSDILLTQSPAILSVSPGERVSFSCRASQSIGTSIHWYQQRTNDSPRLLIKYASESISGIPSRFSGSGSGTDFTLSINSVESEDIADYYCQQSNSWPTTFGGGTKLEIKR
Human CD7
  Human PBMC Transduction (% positive): 21.6 % positive
non-human primate CD7
  NHP PBMC Transduction (% positive): 5.64 % positive

B3: CD8 Binder (SEQ ID NO. 69) (scFv)
scFv: NIVLTQSPASLAVSLGQRATISCRASESVDGFGNSFMNWYQQKPGQSPKLLIYLASNLESGVPARFSGSGSRTDFTLTIDPVEADDAATYYCQQNNEDPYTFGGGTKLEIKRGGGGSGGGGSGGGGSGGGGSEVQLQQSGPELVKPGASVKISCKASRYTFTDYNLHWVKLSHEKSLEWIGFIYPYNGGTGYNQKFKNKAKLTVDYSSSTAYMELRSLTSVDAAVYYCARDHRYNEGVSFDYWGQGTTLTVSS
Human CD8
  Human PBMC Transduction (% positive): 4.09 % positive
non-human primate CD8
  NHP PBMC Transduction (% positive): 1.8 % positive

B4: CD7 Binder (SEQ ID NO. 51) (scFv)
scFv: DILLTQSPAILSVSPGERVSFSCRASQSIGTSIHWYQQRTNDSPRLLIKYASESISGIPSRFSGSGSGTDFTLSINSVESEDIADYYCQQSNSWPTTFGGGTKLEIKRGGGGSGGGGSGGGGSGGGGSQVQLQQPGAELVKPGASVKLSCKASGYPFTSYWIHWVKQRPGRGLEWLGRIDPNSGDTKYNEKFKNKATLTVDKSSTTAYMQLSSLTSEDSAVYYCARSPYYSNDNSMDYWGQGTSVTVSS
Human CD7
  Human PBMC Transduction (% positive): 19.3 % positive
non-human primate CD7
  NHP PBMC Transduction (% positive): 2.61 % positive
